System: CyPPO10
Assay: PPO enzyme activity and IC50 by herbicides, CyPPO10 wild type and variants (MBP-PPO fusion)
Assay type: biochemical, Thermosynechococcus elongatus BP-1
Conditions: PPO enzyme activity of CyPPO10 protein, wild type = 100
Experimental: The enzyme activities of PPO protein and PPO protein variants were examined, and inhibition assay by PPO-inhibiting herbicides was conducted. It was confirmed that the PPO protein has low water-solubility, but in case of being expressed as a fusion protein with MBP (maltose binding protein) (MBP-PPO), the PPO protein is able to be stably expressed as water-soluble form. Therefore, the wild type and variant proteins which were expressed in the form of fusion protein with MBP were used in the present test (refer to FIG. 4).
In order to express wild type genes and mutant genes of CyPPO10 and CyPPO13 (refer to Example 1 and Example 4), those genes were introduced to pMAL-c2X vector (refer to FIG. 5) respectively, and then cloned to BL21 (DE3) E. coli (CodonPlus).
The enzyme activity of the purified wild type protein and variant proteins of CyPPO10 and CyPPO13 was measured by the following process.
At first, a substrate of PPO protein, Protoporphyrinogen IX was synthesized. This process was performed in the space where nitrogen gas is streamed. 6 mg of protoporphyrin IX was dissolved in 20% (v/v) EtOH 20 ml, and stirred under dark condition for 30 minutes. The obtained protoporphyrinogen IX solution was put into a 15 ml screw tube in an amount of 800 and flushed with nitrogen gas for 5 minutes. To this, 1 g of sodium amalgam was added and vigorous shaking was performed for 2 minutes. The lid was open to exhaust hydrogen gas in the tube. Thereafter, the lid was closed and incubated for 3 minutes. The […] was filtered using syringe and cellulose membrane filter. To 600 μl of the obtained […], 2M MOPS [3-(N-morpholino)propanesulfonic acid] was added in an amount of approximately 300 thereby adjusting pH to 8.0. To determine the enzyme activity of PPO protein, a reaction mixture was prepared with the following composition (based on 10 ml): 50 mM Tris-Cl (pH 8.0); 50 mM NaCl; 0.04% (v/v) Tween 20; 40 mM glucose (0.072 g); 5 units glucose oxidase (16.6 mg); and 10 units catalase (1 μl).
Two hundred microliters (200 μl) of reaction mixture containing a purified PPO protein were placed in 96 well plates, and preincubated for 30 min at room temperature to reduce the oxygen concentration by the reaction of glucose oxidase-catalase. The mineral oil was layered and then the reaction was initiated by adding the substrate, […], to a final concentration of 50 μM. The reaction proceeded at room temperature for 30 min and the fluorescence of protoporphyrin IX was measured using Microplate reader (Sense, Hidex) (excitation: 405 nm; emission: 633 nm). To calculate the PPO enzyme activity, protoporphyrinogen IX solution was kept open in the air to oxidize the solution (overnight). To this, 2.7N HCl was added, and the absorbance at 408 nm was measured. A standard curve was generated using standard protoporphyrin IX, and the PPO activity was measured by calibration of protoporphyrin IX using the standard curve of protoporphyrin IX.
The final concentration of each herbicide was as follows: […]

Molecule | Activity (%)
CyPPO10 V165S + F360V: CyPPO10 (SEQ ID NO: 2) PPO variant (protein, Synthetic CyPPO10) MIEVDVAIVGGGLSGLSVAWRLQRSAPHYSGVLLEASDRLGGNITTQAAEGFVWELGPNSFAPTPALLQLIAEVGLHSELIRGDRHLPRYIYWRGELYPLEPTRPLALATSNLLSPWGKVRAALGALGFVPPYLGSGDESVDSFFRRHLGQEVAERLVAPFVSGSYAGDPQQLSAAAAFRRIAQLEKLGGSLIAGALRLRRQQPPQPKPPAQVQMRPGELGSFREGLAALPRAIAQQLKAPLHLQTPVEAITPEPKGGYLLRSGEQTWHARSVVLATPAYQTAELVAPFQPAIARALATIPYPTVACVVLAYPAGLGRSVRPGFGVLVPRGQGIRTLGTIWSSCLFPQRTPAGWQVFTSVIGGATDPDLASLREEAIVEQVQQDLTRLLDLPAAKARLLGMKVWRRAIPQYIVGYPQQWQQVTHALTQTPGLFLCSNYAEGVALGDRVEHGNRTAAAVAAYLAGGQS | 52
CyPPO10 R89A + V305T + F360M: CyPPO10 (SEQ ID NO: 2) PPO variant (protein, Synthetic CyPPO10) MIEVDVAIVGGGLSGLSVAWRLQRSAPHYSGVLLEASDRLGGNITTQAAEGFVWELGPNSFAPTPALLQLIAEVGLHSELIRGDRHLPAYIYWRGELYPLEPTRPLALATSNLLSPWGKVRAALGALGFVPPYLGSGDESVDSFFRRHLGQEVAERLVAPFVSGVYAGDPQQLSAAAAFRRIAQLEKLGGSLIAGALRLRRQQPPQPKPPAQVQMRPGELGSFREGLAALPRAIAQQLKAPLHLQTPVEAITPEPKGGYLLRSGEQTWHARSVVLATPAYQTAELVAPFQPAIARALATIPYPTTACVVLAYPAGLGRSVRPGFGVLVPRGQGIRTLGTIWSSCLFPQRTPAGWQVFTSMIGGATDPDLASLREEAIVEQVQQDLTRLLDLPAAKARLLGMKVWRRAIPQYIVGYPQQWQQVTHALTQTPGLFLCSNYAEGVALGDRVEHGNRTAAAVAAYLAGGQS | 5
CyPPO10 A167C + F360M: CyPPO10 (SEQ ID NO: 2) PPO variant (protein, Synthetic CyPPO10) MIEVDVAIVGGGLSGLSVAWRLQRSAPHYSGVLLEASDRLGGNITTQAAEGFVWELGPNSFAPTPALLQLIAEVGLHSELIRGDRHLPRYIYWRGELYPLEPTRPLALATSNLLSPWGKVRAALGALGFVPPYLGSGDESVDSFFRRHLGQEVAERLVAPFVSGVYCGDPQQLSAAAAFRRIAQLEKLGGSLIAGALRLRRQQPPQPKPPAQVQMRPGELGSFREGLAALPRAIAQQLKAPLHLQTPVEAITPEPKGGYLLRSGEQTWHARSVVLATPAYQTAELVAPFQPAIARALATIPYPTVACVVLAYPAGLGRSVRPGFGVLVPRGQGIRTLGTIWSSCLFPQRTPAGWQVFTSMIGGATDPDLASLREEAIVEQVQQDLTRLLDLPAAKARLLGMKVWRRAIPQYIVGYPQQWQQVTHALTQTPGLFLCSNYAEGVALGDRVEHGNRTAAAVAAYLAGGQS | 90
CyPPO10 V305T + F360I: CyPPO10 (SEQ ID NO: 2) PPO variant (protein, Synthetic CyPPO10) MIEVDVAIVGGGLSGLSVAWRLQRSAPHYSGVLLEASDRLGGNITTQAAEGFVWELGPNSFAPTPALLQLIAEVGLHSELIRGDRHLPRYIYWRGELYPLEPTRPLALATSNLLSPWGKVRAALGALGFVPPYLGSGDESVDSFFRRHLGQEVAERLVAPFVSGVYAGDPQQLSAAAAFRRIAQLEKLGGSLIAGALRLRRQQPPQPKPPAQVQMRPGELGSFREGLAALPRAIAQQLKAPLHLQTPVEAITPEPKGGYLLRSGEQTWHARSVVLATPAYQTAELVAPFQPAIARALATIPYPTTACVVLAYPAGLGRSVRPGFGVLVPRGQGIRTLGTIWSSCLFPQRTPAGWQVFTSIIGGATDPDLASLREEAIVEQVQQDLTRLLDLPAAKARLLGMKVWRRAIPQYIVGYPQQWQQVTHALTQTPGLFLCSNYAEGVALGDRVEHGNRTAAAVAAYLAGGQS | 10
CyPPO10 S60T + V165S + F360M: CyPPO10 (SEQ ID NO: 2) PPO variant (protein, Synthetic CyPPO10) MIEVDVAIVGGGLSGLSVAWRLQRSAPHYSGVLLEASDRLGGNITTQAAEGFVWELGPNTFAPTPALLQLIAEVGLHSELIRGDRHLPRYIYWRGELYPLEPTRPLALATSNLLSPWGKVRAALGALGFVPPYLGSGDESVDSFFRRHLGQEVAERLVAPFVSGSYAGDPQQLSAAAAFRRIAQLEKLGGSLIAGALRLRRQQPPQPKPPAQVQMRPGELGSFREGLAALPRAIAQQLKAPLHLQTPVEAITPEPKGGYLLRSGEQTWHARSVVLATPAYQTAELVAPFQPAIARALATIPYPTVACVVLAYPAGLGRSVRPGFGVLVPRGQGIRTLGTIWSSCLFPQRTPAGWQVFTSMIGGATDPDLASLREEAIVEQVQQDLTRLLDLPAAKARLLGMKVWRRAIPQYIVGYPQQWQQVTHALTQTPGLFLCSNYAEGVALGDRVEHGNRTAAAVAAYLAGGQS | 17
CyPPO10 A167L + F360I: CyPPO10 (SEQ ID NO: 2) PPO variant (protein, Synthetic CyPPO10) MIEVDVAIVGGGLSGLSVAWRLQRSAPHYSGVLLEASDRLGGNITTQAAEGFVWELGPNSFAPTPALLQLIAEVGLHSELIRGDRHLPRYIYWRGELYPLEPTRPLALATSNLLSPWGKVRAALGALGFVPPYLGSGDESVDSFFRRHLGQEVAERLVAPFVSGVYLGDPQQLSAAAAFRRIAQLEKLGGSLIAGALRLRRQQPPQPKPPAQVQMRPGELGSFREGLAALPRAIAQQLKAPLHLQTPVEAITPEPKGGYLLRSGEQTWHARSVVLATPAYQTAELVAPFQPAIARALATIPYPTVACVVLAYPAGLGRSVRPGFGVLVPRGQGIRTLGTIWSSCLFPQRTPAGWQVFTSIIGGATDPDLASLREEAIVEQVQQDLTRLLDLPAAKARLLGMKVWRRAIPQYIVGYPQQWQQVTHALTQTPGLFLCSNYAEGVALGDRVEHGNRTAAAVAAYLAGGQS | 32
CyPPO10 V305M + F360M: CyPPO10 (SEQ ID NO: 2) PPO variant (protein, Synthetic CyPPO10) MIEVDVAIVGGGLSGLSVAWRLQRSAPHYSGVLLEASDRLGGNITTQAAEGFVWELGPNSFAPTPALLQLIAEVGLHSELIRGDRHLPRYIYWRGELYPLEPTRPLALATSNLLSPWGKVRAALGALGFVPPYLGSGDESVDSFFRRHLGQEVAERLVAPFVSGVYAGDPQQLSAAAAFRRIAQLEKLGGSLIAGALRLRRQQPPQPKPPAQVQMRPGELGSFREGLAALPRAIAQQLKAPLHLQTPVEAITPEPKGGYLLRSGEQTWHARSVVLATPAYQTAELVAPFQPAIARALATIPYPTMACVVLAYPAGLGRSVRPGFGVLVPRGQGIRTLGTIWSSCLFPQRTPAGWQVFTSMIGGATDPDLASLREEAIVEQVQQDLTRLLDLPAAKARLLGMKVWRRAIPQYIVGYPQQWQQVTHALTQTPGLFLCSNYAEGVALGDRVEHGNRTAAAVAAYLAGGQS | 87

Reference: patent US11466286B2, “Methods and compositions for conferring and/or enhancing herbicide tolerance using protoporphyrinogen oxidase or variant thereof” (FarmHannong Co., Ltd., priority 2016, dated 2022)
